From patent US9120869 (UNIVERSITY OF SOUTH FLORIDA A FLORIDA NON PROFIT, dated 2015)

T1: Duffy antigen receptor for chemokines (DARC) on Duffy-positive human erythrocytes (human, UniProt Q16570 1-336)
T1 construct: whole, on cells; also called Duffy blood group antigen; Duffy antigen surface receptor
T1 sequence: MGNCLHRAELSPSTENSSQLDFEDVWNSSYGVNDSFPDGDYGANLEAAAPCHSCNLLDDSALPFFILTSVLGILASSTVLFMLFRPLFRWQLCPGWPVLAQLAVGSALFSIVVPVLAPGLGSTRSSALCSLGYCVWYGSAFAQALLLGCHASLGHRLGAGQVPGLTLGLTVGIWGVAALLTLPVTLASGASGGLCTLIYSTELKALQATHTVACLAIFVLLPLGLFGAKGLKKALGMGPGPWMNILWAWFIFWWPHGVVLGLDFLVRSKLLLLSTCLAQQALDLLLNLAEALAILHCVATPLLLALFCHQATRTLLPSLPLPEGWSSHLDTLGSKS

B1: recombinant DBPII-Sal1 (refolded ligand domain, region II, of Plasmodium vivax Duffy binding protein, Sal1 variant) (ligand)
chain: NHAFLQNTVMKNCNYKRKRRERDWDCNTKKDVCIPDRRYQLCMKELTNLVNNTDTNFHRDITFRKLYLKRKLIYDAAVEGDLLLKLNNYRYNKDFCKDIRWSLGDFGDIIMGTDMEGIGYSKVVENNLRSIFGTDEKAQQRRKQWWNESKAQIWTAMMYSVKKRLKGNFIWICKLNVAVNIEPQIYRWIREWGRDYVSELPTEVQKLKEKCDGKINYTDKKVCKVPPCQNACKSYDQWITRKKNQWDVLSNKFISVKNAEKVQTAGIVTPYDILKQELDEFNEVAFENEINKRDGAYIEL
notes: also called recombinant Sal1; rSal1; not shown: C-terminal histidine tag from pET21a+
B2: COS7-expressed PvDBP-RII variant Sal 1 (ligand)
chain: NHAFLQNTVMKNCNYKRKRRERDWDCNTKKDVCIPDRRYQLCMKELTNLVNNTDTNFHRDITFRKLYLKRKLIYDAAVEGDLLLKLNNYRYNKDFCKDIRWSLGDFGDIIMGTDMEGIGYSKVVENNLRSIFGTDEKAQQRRKQWWNESKAQIWTAMMYSVKKRLKGNFIWICKLNVAVNIEPQIYRWIREWGRDYVSELPTEVQKLKEKCDGKINYTDKKVCKVPPCQNACKSYDQWITRKKNQWDVLSNKFISVKNAEKVQTAGIVTPYDILKQELDEFNEVAFENEINKRDGAYIEL
notes: The (mut) plasmid differs from (original) by a PvuII to EcoRI site change; also called DBPII-Sal1 expressed on surface of COS7 cells; pEGFP-Sal 1 (original); not shown: C-terminal GFP tag (pEGFP-N1)

Columns and labels:
[1] = target: T1, Duffy antigen receptor for chemokines …; experiment: erythrocyte binding assay, Western blot
[2] = target: T1, Duffy antigen receptor for chemokines …; experiment: COS7 erythrocyte-binding assay (rosettes)

Row | Binder | binding result [1] | binding result [2]
1 | B1 | binds | 
2 | B2 |  | binds
